B1: Mitochondrial import inner membrane translocase subunit TIM23 (Saccharomyces cerevisiae), P32897 (parent)
chain: MSWLFGDKTPTDDANAAVGGQDTTKPKELSLKQSLGFEPNINNIISGPGGMHVDTARLHPLAGLDKGVEYLDLEEEQLSSLEGSQGLIPSRGWTDDLCYGTGAVYLLGLGIGGFSGMMQGLQNIPPNSPGKLQLNTVLNHITKRGPFLGNNAGILALSYNIINSTIDALRGKHDTAGSIGAGALTGALFKSSKGLKPMGYSSAMVAAACAVWCSVKKRLLEK
partner: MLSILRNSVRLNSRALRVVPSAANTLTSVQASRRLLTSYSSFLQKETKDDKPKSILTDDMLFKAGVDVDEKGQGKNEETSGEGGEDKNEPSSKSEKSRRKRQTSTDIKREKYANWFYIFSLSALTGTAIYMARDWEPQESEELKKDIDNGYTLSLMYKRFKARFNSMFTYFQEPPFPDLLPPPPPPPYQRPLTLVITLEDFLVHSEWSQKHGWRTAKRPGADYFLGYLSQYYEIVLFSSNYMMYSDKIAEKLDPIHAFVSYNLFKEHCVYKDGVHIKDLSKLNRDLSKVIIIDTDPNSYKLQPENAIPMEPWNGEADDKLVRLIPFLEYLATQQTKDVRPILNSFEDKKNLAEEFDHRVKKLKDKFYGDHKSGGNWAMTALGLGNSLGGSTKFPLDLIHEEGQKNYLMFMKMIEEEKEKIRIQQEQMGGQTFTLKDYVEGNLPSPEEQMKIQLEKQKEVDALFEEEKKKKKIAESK

Variants of: B1
Conditions: with tim50_yeast TIM50, Q02776

| effect of a mutation on the interaction | Variant |
| --- | --- |
| disrupting interaction | Y70A;L71A |
